According to article PMC6614842 (Nucleic Acids Research, 2019):
Where two headings read alike, the source gives them in different places.

Columns and labels:
[1] = molecular target: Mature full-length TFAM (human mitochondrial transcription factor A, residues 43-246) (human) (UniProt Q00059); assay: AUC
[2] = molecular target: Mature full-length TFAM (human mitochondrial transcription factor A, residues 43-246) (human) (UniProt Q00059); assay: SEC-MALLS
[3] = molecular target: Mature full-length TFAM (human mitochondrial transcription factor A, residues 43-246) (human) (UniProt Q00059); assay: ITC
[4] = molecular target: Mature full-length TFAM (human mitochondrial transcription factor A, residues 43-246) (human) (UniProt Q00059); assay: SEC-MALLS; remark: listed apart in the source
[5] = molecular target: Mature full-length TFAM (human mitochondrial transcription factor A, residues 43-246) (human) (UniProt Q00059); assay: AUC; remark: listed apart in the source
[6] = molecular target: T1, TFAM-C49A, A488 at C-terminal Cys246 (Homo sapiens, UniProt Q00059 43-246, C49A); assay: FRET
T1 sequence: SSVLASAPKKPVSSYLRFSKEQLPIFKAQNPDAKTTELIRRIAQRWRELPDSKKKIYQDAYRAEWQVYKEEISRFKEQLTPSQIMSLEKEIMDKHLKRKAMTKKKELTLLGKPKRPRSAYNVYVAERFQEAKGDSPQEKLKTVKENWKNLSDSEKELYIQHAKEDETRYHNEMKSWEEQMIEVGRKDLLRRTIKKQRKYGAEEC

TFAM WT (mature) [7] = molecular target: T2, TFAM WT (mature) (Homo sapiens, UniProt Q00059 43-246); assay: EMSA
T2 sequence: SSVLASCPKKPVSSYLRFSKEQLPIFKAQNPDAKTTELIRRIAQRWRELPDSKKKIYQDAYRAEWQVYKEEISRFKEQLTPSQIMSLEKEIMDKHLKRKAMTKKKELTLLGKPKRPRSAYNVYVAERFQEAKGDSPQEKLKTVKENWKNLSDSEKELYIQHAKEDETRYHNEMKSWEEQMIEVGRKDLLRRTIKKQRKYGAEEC

[8] = molecular target: T1, TFAM-C49A, A488 at C-terminal Cys246; assay: FRET; remark: listed apart in the source
native gel or EMSA = molecular target: the molecule itself; assay: native gel or EMSA
TFAM WT (mature) [9] = molecular target: T2, TFAM WT (mature); assay: X-ray crystallography
[10] = molecular target: T1, TFAM-C49A, A488 at C-terminal Cys246; assay: FRET; remark: listed apart in the source
[11] = molecular target: T1, TFAM-C49A, A488 at C-terminal Cys246; assay: FRET; remark: listed apart in the source

Mature full-length TFAM (human mitochondrial transcription factor A, residues 43-246) (from UniProt Q00059 43-246) (natural protein)
stoichiometry N [1]: 2 | stoichiometry N [2]: 2 | stoichiometry N [3]: 2 | stoichiometry N [4]: 2 | stoichiometry N [5]: 2

B1: Site-X5* 28 (dsDNA)
DNA 1: TATCATAACAAAAAATTTCCACCAAACA
DNA 2: TGTTTGGTGGAAATTTTTTGTTATGATA
binding result [6]: binds

B2: Site-X 22 (dsDNA)
DNA 1: TAACAAAAAATTTCCACCAAAC
DNA 2: TTTGGTGGAAATTTTTTGTTAG
Kd (TFAM WT (mature) [7]): 13.6 ± 2.89 nM

B3: Site-Y5* 28 (dsDNA)
DNA 1: TAGAGGCTGTGCAGACATTCAATTGTTA
DNA 2: TAACAATTGAATGTCTGCACAGCCTCTA
binding result [8]: binds

B4: TFAM C-terminal tail deletion mutant (TFAM-CTΔ26) (domain or fragment, human, UniProt Q00059 43-220, looked up)
chain: SSVLASCPKKPVSSYLRFSKEQLPIFKAQNPDAKTTELIRRIAQRWRELPDSKKKIYQDAYRAEWQVYKEEISRFKEQLTPSQIMSLEKEIMDKHLKRKAMTKKKELTLLGKPKRPRSAYNVYVAERFQEAKGDSPQEKLKTVKENWKNLSDSEKELYIQHAKEDETRYHNEMKSWEE
binding result (native gel or EMSA): binds

B5: Site-YBr 22 (dsDNA)
DNA 1: TAACAATTGAATGTCTGCACAG
DNA 2: CTGTGCAGACATTCAATTGTTA
modifications: brominated at thymine positions (positions not given)
binding result (TFAM WT (mature) [9]): binds

B6: Site-X3* 28 (dsDNA)
DNA 1: TATCATAACAAAAAATTTCCACCAAACA
DNA 2: TGTTTGGTGGAAATTTTTTGTTATGATA
binding result [10]: binds

B7: Site-Y3* 28 (dsDNA)
DNA 1: TAGAGGCTGTGCAGACATTCAATTGTTA
DNA 2: TAACAATTGAATGTCTGCACAGCCTCTA
binding result [11]: binds
